According to patent publication US20080207488A1, “Method for Detecting Peptides Comprising a Cross-B Structure” (priority 2005, published 2008):

Key:
[1] = Thioflavin T fluorescence; format: physicochemical
Method: Fluorescence of ThT-protein/peptide adducts was measured as follows. […] Fluorescence was measured at 485 nm upon excitation at 435 nm. Background signals from buffer, buffer with ThT and protein/peptide solution without ThT were subtracted from corresponding measurements with protein solution incubated with ThT. […] Fluorescence was measured in triplicate on a Hitachi F-4500 fluorescence spectrophotometer (Ltd., Tokyo, Japan).
(§1) Formulated protein therapeutics were obtained from the local hospital pharmacy and were used as supplied by the manufacturers. […] Lyophilized therapeutics were dissolved according to the manufacturers recommendations. […] Other protein therapeutics were only kept at 4° C., and assayed for the presence of cross-β structure conformation at shown time points. Enhancement in fluorescence of ThT and Congo red was measured with all formulated protein therapeutics. For this purpose, proteins were diluted to the indicated concentrations. […] Zinc-insulin was diluted tenfold in the activation assay, GH was diluted to a final concentration of 500 μg ml^−1. Activation of factor XII and prekallikrein by the therapeutics was tested in the chromogenic factor XII assay (see above). […] After coating, plates were blocked with Blocking Reagent (Roche Diagnostics, Almere, The Netherlands).
To prepare structurally altered ovalbumin (OVA) with amyloid cross-β structure conformation, purified OVA (Sigma, A-7641, lot 071k7094) was heated to 85° C. One mg ml^−1 OVA in 67 mM NaPi buffer pH 7.0, 100 mM NaCl, was heated for two cycles in PCR cups in a PTC-200 thermal cycler (MJ Research, Inc., Waltham, Mass., USA). In each cycle, OVA was heated from 30 to 85° C. at a rate of 5° C./min. Native OVA (nOVA) and heat-denatured OVA (dOVA) were tested in the ThT fluorescence assay and in the Plg-activation assay. In the fluorescence assay and in the Plg-activation assay, 25 and 100 μg ml^−1 nOVA and dOVA were tested, respectively. TEM images of nOVA and dOVA were taken to check for the presence of large aggregates. […] MSA (#126674, Calbiochem) was dissolved in 8 M urea, 100 mM Tris-HCl pH 8.2, at 10 mg ml^−1 final concentration. Dithiothreitol (DTT) was added to a final concentration of 10 mM. Air was replaced by N2 and the solution was incubated for 2 h at room temperature. Then, the solution was transferred to ice and iodoacetamide was added from a 1 M stock to a final concentration of 20 mM. […] Alkyl-MSA was dialyzed against H2O before use. […] In the ThT-fluorescence assay 25 μg ml^−1 nMSA and alkyl-MSA were tested, and in the Plg-activation assay 100 μg ml^−1 was tested. The presence of aggregates or fibrils was analyzed using TEM. […]
Protein therapeutics were obtained from the local hospital pharmacy and analyzed within the expiry limits as stated by the manufacturers.

[2] = target: T1, tPA (Homo sapiens, UniProt P00750); assay: Plasminogen-activation assay (tPA-mediated Plg to Pls, S-2251); format: biochemical
T1 construct: purchased Boehringer-Ingelheim (Actilyse, Alteplase)
T1 sequence (P00750 36-562): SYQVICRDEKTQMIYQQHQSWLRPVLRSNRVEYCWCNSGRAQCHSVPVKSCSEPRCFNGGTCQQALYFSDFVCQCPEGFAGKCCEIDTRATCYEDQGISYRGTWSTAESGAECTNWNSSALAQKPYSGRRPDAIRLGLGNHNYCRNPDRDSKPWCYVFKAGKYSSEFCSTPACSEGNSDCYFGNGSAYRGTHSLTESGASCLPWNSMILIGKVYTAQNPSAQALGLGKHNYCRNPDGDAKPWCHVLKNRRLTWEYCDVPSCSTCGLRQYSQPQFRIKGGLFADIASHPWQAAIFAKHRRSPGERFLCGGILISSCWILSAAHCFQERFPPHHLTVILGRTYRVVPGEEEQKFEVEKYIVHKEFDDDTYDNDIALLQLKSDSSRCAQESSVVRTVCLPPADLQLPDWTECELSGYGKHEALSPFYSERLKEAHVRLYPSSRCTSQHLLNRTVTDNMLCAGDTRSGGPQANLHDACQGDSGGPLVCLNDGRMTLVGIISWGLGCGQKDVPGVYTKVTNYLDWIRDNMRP
Method: Plasmin (Pls) activity was assayed as described^7. Peptides and proteins that were tested for their stimulatory ability were regularly used at 100 μg ml^−1. […] Chromogenic substrate S-2251 (Chromogenix, Instrumentation Laboratory SpA, Milano, Italy) was used to measure Pls activity. Conversion of zymogen factor XII (#233490, Calbiochem, EMD Biosciences, Inc., San Diego, Calif.) to proteolytically active factor XII (factor XIIa) was assayed by measurement of the conversion of chromogenic substrate Chromozym-PK (Roche Diagnostics, Almere, The Netherlands) by kallikrein. Chromozym-PK was used at a concentration of 0.3 mM. Factor XII, human plasma prekallikrein (#529583, Calbiochem) and human plasma cofactor high-molecular weight kininogen (#422686, Calbiochem) were used at concentrations of 1 μg ml^−1. […] Assays were performed using microtiter plates (Costar, Cambridge, Mass., USA). Peptides and proteins were tested for their ability to activate factor XII. 150 μg ml^−1 kaolin, an established activator of factor XII was used as positive control and solvent (H2O) as negative control. The conversion of Chromozym-PK was recorded kinetically at 37° C. for at least 60 minutes. Assays were done in duplicate. […] Alternatively, chromogenic substrate S-2222 (Chromogenix) was used to follow the activity of factor XII itself. With S-2222, activation of factor XII in plasma was measured, using 60% v/v plasma, diluted with substrate and H2O with or without potential cofactor. Furthermore, auto-activation of factor XII was measured by incubating 53 μg ml^−1 purified factor XII in 50 mM Tris-HCl buffer pH 7.5 with 1 mM EDTA and 0.001% v/v Triton-X100, with S-2222 and H2O with or without potential cofactor.
as §1
Purification of β2-glycoprotein I (β2GPI) was performed according to established methods^11,12. Recombinant human β2GPI was made using insect cells and purified as described^11. Plasma derived β2GPI as used in a factor XII ELISA, the chromogenic Plg-activation assay and in the anti-phospholipid syndrome antibody ELISA (see below), was purified from fresh human plasma as described^12.
To prepare structurally altered ovalbumin (OVA) with amyloid cross-β structure conformation, purified OVA (Sigma, A-7641, lot 071k7094) was heated to 85° C. One mg ml^−1 OVA in 67 mM NaPi buffer pH 7.0, 100 mM NaCl, was heated for two cycles in PCR cups in a PTC-200 thermal cycler (MJ Research, Inc., Waltham, Mass., USA). In each cycle, OVA was heated from 30 to 85° C. at a rate of 5° C./min. Native OVA (nOVA) and heat-denatured OVA (dOVA) were tested in the ThT fluorescence assay and in the Plg-activation assay. In the fluorescence assay and in the Plg-activation assay, 25 and 100 μg ml^−1 nOVA and dOVA were tested, respectively. TEM images of nOVA and dOVA were taken to check for the presence of large aggregates. […] MSA (#126674, Calbiochem) was dissolved in 8 M urea, 100 mM Tris-HCl pH 8.2, at 10 mg ml^−1 final concentration.

[3] = target: T2, human fibronectin finger 4,5 (Fn F4,5) fragment (Homo sapiens, UniProt P02751); assay: ELISA, binding of fibronectin F4,5 to coated (mis)folded proteins; settings: coated protein; for affinity of fibronectin F4,5 (detection anti-FLAG HRP): FIG. 7D-H
T2 construct: human fibronectin finger 4,5 (Fn F4,5) fragment; made in house; host or cells: HEK293E cells, transient transfection, protein purified from the medium
T2 sequence (P02751 182-276 limits assumed): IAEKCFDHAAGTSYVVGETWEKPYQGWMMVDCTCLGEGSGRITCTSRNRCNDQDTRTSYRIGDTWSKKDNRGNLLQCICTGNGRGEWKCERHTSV
Method: The plates were blocked using Blocking reagent (Roche 1112589). A dilution series of the protein of interest was applied to the coated proteins and wells were subsequently washed using TBS-T (50 mM Tris pH 7.3, 150 mM NaCl and 0.1% Tween20). Bound protein is detected by the FLAG-tag using 1:3000 anti-FLAG-HRP (Sigma A-8592) in PBS-T, or by 1:1000 Ni-NTA-HRP (Qiagen 34530) in PBS-T. The HRP reaction Is performed using the TMB substrate (Biosource 4501103 or Tebu Bio 101TMB100-500), stopped using 10% H2SO4 and absorbance was measured at 450 nm.

| Pls activity (tPA activation) ([2]; after storage at 65° C.) | binding of fibronectin F4-5 (detection Ni-NTA-HRP) ([3]; FIG. 7A) | affinity of fibronectin F4,5 (detection anti-FLAG HRP) [3] | activation of tPA and Plg by component alone ([2]; FIG. 2G, without contacting) | Substance | ThT fluorescence enhancement ([1]; after storage at 65° C.) | Fluorescence (a.u. +/− SD) ThT ([1]; marketed biopharmaceutical within expiry limits, five μL tested) | enhancement of ThT fluorescence ([1]; therapeutics stored at 4° C.) | tPA activation by protein therapeutics ([2]; stored at 4° C., GH 500 μg ml^−1, zinc-insulin diluted tenfold) | ThT fluorescence after incubation with kaolin ([1]; compared to buffer) |
| --- | --- | --- | --- | --- | --- | --- | --- | --- | --- |
| induced Pls activity |  |  |  | Abciximab: abciximab, an inhibitor of blood platelet aggregation (ReoPro, Centocor) | enhanced ThT fluorescence | 8 +/− 8 a.u. | do not have ThT fluorescence enhancing or tPA activating properties | do not have ThT fluorescence enhancing or tPA activating properties |  |
|  | high affinity binding | High affinities |  | albumin-AGE: advanced glycation end-product modified bovine serum albumin |  |  |  |  |  |
|  |  | high affinity | do not activate tPA and Plg | lysozyme: chicken egg-white lysozyme |  |  |  |  | only in a small increase in ThT fluorescence |
